From patent US10613105

Target: TLR2/6 receptor expressed on NIH 3T3 TLR2/6 receptor cells (whole-cell sensor elements, printed or pipetted)
Test: fluorescence of rhodamine-labeled pyrogen bound to printed or pipetted receptor cells on a membrane, against the control cell line and membrane; after drying, ethanol fixing or storage at 4° C.

Substance “Pam3CSK4 with rhodamine labeling (peptide)” has a delta of the fluorescence intensity greater than 3000 a.u.
